Results published in article PMC13429693, “Disease-associated genetic variants can cause missense effects in tissue-specific protein isoforms” (Nature Communications, 2026).

Substrate: Cc1cc(=O)oc2cc(NC(=O)[C@@H]3CCCN3C(=O)[C@@H](N)C(C)C)ccc12
Experiment: AMC release kinetics, allosteric sigmoidal fit
Assay type: cell-based, Homo sapiens
Conditions: A549 overexpression lysate; […] sitagliptin to exclude DPP4
Description: AMC release kinetics, allosteric sigmoidal fit on DPP9-short (reference DPP9) | Enzyme kinetics for DPP9 reference and AFE isoforms

B1: DPP9-short (reference DPP9) (Homo sapiens) (protein)
chain: MATTGTPTADRGDAAATDDPAARFQVQKHSWDGLRSIIHGSRKYSGLIVNKAPHDFQFVQKTDESGPHSHRLYYLGMPYGSRENSLLYSEIPKKVRKEALLLLSWKQMLDHFQATPHHGVYSREEELLRERKRLGVFGITSYDFHSESGLFLFQASNSLFHCRDGGKNGFMVSPMKPLEIKTQCSGPRMDPKICPADPAFFSFINNSDLWVANIETGEERRLTFCHQGLSNVLDDPKSAGVATFVIQEEFDRFTGYWWCPTASWEGSEGLKTLRILYEEVDESEVEVIHVPSPALEERKTDSYRYPRTGSKNPKIALKLAEFQTDSQGKIVSTQEKELVQPFSSLFPKVEYIARAGWTRDGKYAWAMFLDRPQQWLQLVLLPPALFIPSTENEEQRLASARAVPRNVQPYVVYEEVTNVWINVHDIFYPFPQSEGEDELCFLRANECKTGFCHLYKVTAVLKSQGYDWSEPFSPGEDEFKCPIKEEIALTSGEWEVLARHGSKIWVNEETKLVYFQGTKDTPLEHHLYVVSYEAAGEIVRLTTPGFSHSCSMSQNFDMFVSHYSSVSTPPCVHVYKLSGPDDDPLHKQPRFWASMMEAASCPPDYVPPEIFHFHTRSDVRLYGMIYKPHALQPGKKHPTVLFVYGGPQVQLVNNSFKGIKYLRLNTLASLGYAVVVIDGRGSCQRGLRFEGALKNQMGQVEIEDQVEGLQFVAEKYGFIDLSRVAIHGWSYGGFLSLMGLIHKPQVFKVAIAGAPVTVWMAYDTGYTERYMDVPENNQHGYEAGSVALHVEKLPNEPNRLLILHGFLDENVHFFHTNFLVSQLIRAGKPYQLQIYPNERHSIRCPESGEHYEVTLLHFLQEYL
notes: 863 aa short isoform amplified from H358 cDNA or in-house plasmids; overexpressed in A549 cells, whole cell lysate; dimer
How did the K0.5 turn out when B1 was run?
The K0.5 was 4.411 ± 0.752 µM.

And the Vmax?
Its Vmax is 2.24 µmol/min/mg.
